B1: TPR t1 (parent)
chain: GACCAAUCUGCCCUCAGAGCUCGAGAACAUCUUCGGAUGCAGAGGAGGCAGGCUUCGGUGGCGCGAUAGCGCCAACGUCCUCAACCUCCAAUGCAUCCCACCACAUGAUGAUGCCUGAAGAGCCUUGGUUUUUUG

Variants of: B1
Experiment: polymerase ribozyme fitness, log enrichment relative to wild type (log ratio); higher = more active; in vitro selection for triplet polymerase activity
Summary of the method: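 Mutant libraries of each subunit of a heterodimeric triplet polymerase ribozyme were built by PCR and transcribed. Each library went through one round of in vitro selection in triplicate: annealing with biotinylated primer, partner subunit and triplets, frozen incubation at −7 °C, gel excision of extended constructs, streptavidin-bead capture and RT-PCR. Input and output libraries were Illumina-sequenced; only genotypes with ≥10 input reads and ≥1 read per output were kept. Fitness is log2(genotype enrichment/wild-type enrichment), using inverse-variance-weighted replicate averages.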

Variant | polymerase ribozyme fitness (log ratio)
G39U G42C C94U U106A U112A | -0.723
G39C U55G A119U | -0.691
C40G C102A | -3.26
C40U A50U | -4.47
C40U A50G | -0.548
C40G C53A C70U C115G U125A | -3.58
C40A C53A G57U | -0.732
C40A C72U U92A C115A | -1.91
C40A C86U G110U U112C | -3.84
C40A A46G U55A C99U G120A | -4.32
C40A U131A | -1.11
G39U U59A C98U A121G | 0.547
G39U G47U | -2.97
G39U U54G C73G | -4.41
C40G U78C | -1.4
C40G C56U A91C | -2.49
G39C G135U | -0.712
C40A C82G | -1.95
C40G C70G | -4.89
C40A U109C C115U | -6.69
G39U G44C C72U | -1.9
C40G A41U C70U C124G | -3.14
C40A G44U G45A | -3.66
G39U G52A U55C C56A C80U | -1.08

Variant | polymerase ribozyme fitness (log ratio)
C40G C49U G69A U78A | -4.96
C40G G69A A84C | -3.83
G39C G65U | -6.02
C40A G45U | -2.77
C40U A50U G51A C82A C85U | -4.25
C40A G71C C101A U131C | -3.67
C40A C114A | -3.51
C40G C86U A100U | -3.33
G39U A43G | -1.75
C40A G52A C73U C104U U126A | -3.9
C40A A43C | -3.2
C40G U81C | -1.19
C40G U55G | -0.761
C40A G44A U92G A95U C115U | -6.45
C40A C73A U81C C104U | -0.977
G39U G120U | -0.816
G39U G58A A121U | 1.6
C40A U129G U131A G135C | -4.21
C40A C73U G128U | -3.11
C40G C82A A83C U87A A121U | -0.502
C40G G60U C104A | -1.87
C40G C86U C101A | -2.66
C40G G52U | -2.76
G39U G57A C80A | -2.91

Variant | polymerase ribozyme fitness (log ratio)
G39U C76U C79G | -1.98
C40G A84G | -2.06
G39U G42A G57U G117A C124G | -3.25
G39U C49A G71U G127A | -2.56
C40A A43G C56G G135U | -4.41
C40A C73U U78A | -0.967
G39U A103C C114U A119U G120A U130A | -4.34
C40A G42A G48U G58A A90G | -2.65
G39U G61U G110U | -2
G39U C73U G77A | -1.39
G39U C123G U126C | -0.255
G39U G61A C72G A103U | -5.55
C40A A43U C82U | -3.09
C40A C73U | -1.17
C40G G52A U78A C101A G120U | -2
G39U G113U | -3.59
G39U G113C | -2.84
C40A U87G | -1.04
G39U C40G | -3.47
C40G C115A G120C G122U | -1.41
C40A G69C U130C | -2.11
C40G G44U G63C C85U | -5.9
G39U U109G | -5.73
C40G G44U C85U | -5.09

Variant | polymerase ribozyme fitness (log ratio)
C40A G57U G122U | -2.54
C40G U59A C86U A100U | -4.58
C40A G48A C70U | -2.07
G39U C88U C94U U106G A121C | -0.0673
C40A G45U G71C U92A | -6.28
G39U G65A | -6.81
C40G C56U C70A G77A C88U A103U A119G | -7.04
G39U A41G G45A A119G U132G G135U | -2.12
G39C G48U C62U | -1.74
C40U A46U G47A C53G A66C G117C | -7.17
C40A G60U A91G G135C | -4.18
G39U U55A G71A C94G C102A G113U | -5.82
C40A C56G | -2.58
G39U C64U A84C G122A C124A | 0.97
C40G A46C G51U C62U U87G C115G | -6.61
G39U A90G C102A G117U A121C | -5.4
C40G G52A A118U | -0.83
C40G U109A C114G U132A | -4.05
G39U C115U U131A | -2.02
G39U G63A A100U G120U | -2.94
G39C U78A C94A C123A C124A G128A | -0.0279
G39U C49G A118U | -0.724
G39U G60A | 0.0157
G39U G60U | -0.635

Variant | polymerase ribozyme fitness (log ratio)
G39U C79U | -0.704
G39U A74G | -1.85
G39U U106C U129C | -1.88
C40G G69U U92A G93A C94G A119G | -0.914
C40A A118U G120U | -1.37
C40G A95U | -3.37
G39U C123A | -0.855
C40G A46U C53U C62A | -3.89
G39U U54A | -1.76
C40G C94A G110C C114U A118G | -6.35
C40A G69C | -2.42
C40G U132A | -0.821
G39U A41U A43U G60U C82A C114A | -4.19
C40A G127C | -2.27
C40A G61C A66U G128U U129A U133G | -6
C40G G45U U106A U112A | -0.392
G39C G69A G127U | -3.35
G39U G45U C72A | -2.22
C40A G69C C85G G110U U112C | -6.63
C40G G113A G122C | -1.81
C40U A43G G61A G71U C124A | -4.58
C40A A46G U132A | -1.49
G39C G93A | -2.3
G39C U116C | -2.01

Variant | polymerase ribozyme fitness (log ratio)
C40A G71U | -1.52
C40A G71A | -2
C40G G71A | -1.91
G39U C49A | -0.99
C40G C101G C104U | -3.21
G39U A90G C98U C102A | -4.8
C40U A43U G57U G63C | -3.07
G39U G61U C73U U106A | -1.81
G39U G107U G117U | -6.23
C40G C88G U125G | -6.8
C40G C124A | 1.16
C40G G120A | 0.215
C40G G120U | -0.437
G39C U55A C56A U112C | -0.17
C40A A50U C88U U96C G120U | -4.53
G39U G63A G93U | -3.17
C40G C72U G93A | -0.859
C40G G61A C104A U106C | -1.7
C40G G69A | -3.43
C40G G69C | -2.54
C40A C85G C88U U129G | -3.87
C40A U92G C123G | -1.39
C40U A41U G60A | -2.3
C40G C94A | -2.65

Variant | polymerase ribozyme fitness (log ratio)
C40G A43G U54A | -4.85
G39C G77C C115U G128A | -4.5
C40G C56U G128C | -3.4
G39U C64U A91C C123A | -1.57
G39U C97A | -5.98
C40G C72U | -1.47
C40G C70U U106A U116A G120C | -2.18
C40A C72A | -0.912
G39U C79U C88A G110A G117U | -6.66
C40G G47U A74U | -4.86
G39U G117C | -4.79
G39U C85G | -2.87
G39U C85U | -0.997
G39U A66U A119G | -0.493
C40G G44C A74U U78G | -2.88
C40A A111C | -1.49
C40A | -1.28
C40U | -0.543
C40G | -0.921
C40U A41C C56A C73U C114A | -3.67
C40G C56U G69U | -3.63
C40G A50U | -0.606
G39U C62A | -2.16

Reference: the RNAGym collection of RNA variant scans (doi:10.1073/pnas.2313332121)
